Measured values from IntAct's records for PubMed 15234987.

B1: Zinc finger protein ZFPM1 (Mus musculus), O35615 (parent)
chain: MSRRKQSNPRQIKRSLRDMEAGEEAKAMDSSPKEQEAPDPEAPAIEEPPSPPREDVSPPAVPAPPESPEDPEDMEGQELEMRPQDEEKEEKEEEAAMASPWSGPEELELALQDGQRCVRARLSLTEGLSWGPFYGSIQTRALSPEREEPGPAVTLMVDESCWLRMLPQVLTEEAANSEIYRKDDALWCRVTKVVPSGGLLYVRLVTEPHGAPRHPVQEPVEPGGLAPVHTDIQLLPQQAGMASILATAVINKDVFPCKDCGIWYRSERNLQAHLLYYCASRQRAGSPVSATEEKPKETYPNERVCPFPQCRKSCPSASSLEIHMRSHSGERPFVCLICLSAFTTKANCERHLKVHTDTLSGVCHNCGFISTTRDILYSHLVTNHMVCQPGSKGEIYSPGAGHPAAKLPPDSLAGFQQHSLMHSPLVPADKAPTPSSGLDSKAEVTNGETRVPPQNGGSSESPAAPRTIKVEAAEEPEATRASGPGEPGPQAPSRTPSPHSPNPVRVKTELSSPTPGSSPGPGELTMAGTLFLPQYVFSPDAGTTTVPTAPQASEILAKMSELVHNRLQQGAGSSGAAGTPTGLFSGTKGATCFECEITFNNINNFYVHKRLYCSGRRAPEDPPTVRRPKAATGPARAPAGAAAEPDPSRSSPGPGPREEEASGTTTPEAEAAGRGSEGSQSPGSSVDDAEDDPSRTLCEACNIRFSRHETYTVHKRYYCASRHDPPPRRPPAPTTAPGPAAPALTAPPVRTRRRRKLYELPAAGAPPPAAGPAPVPVVPSPTAELPSSPRPGSASAGPAPALSPSPVPDGPIDLSKRPRRQSPDAPTALPALADYHECTACRVSFHSLEAYLAHKKYSCPAAPLRTTALCPYCPPNGRVRGDLVEHLRQAHGLQVAKPAASPGAEPRTPAERAPRDSPDGRAPRSPSPAPENTPSDPADQGARTPSKGPPAPAPAPGGGGGHRYCRLCNIRFSSLSTFIAHKKYYCSSHAAEHVK

Variants of: B1
Conditions: with tacc3_mouse Tacc3, Q9JJ11
Sequence of tacc3_mouse Tacc3, Q9JJ11 (Q9JJ11 whole entry): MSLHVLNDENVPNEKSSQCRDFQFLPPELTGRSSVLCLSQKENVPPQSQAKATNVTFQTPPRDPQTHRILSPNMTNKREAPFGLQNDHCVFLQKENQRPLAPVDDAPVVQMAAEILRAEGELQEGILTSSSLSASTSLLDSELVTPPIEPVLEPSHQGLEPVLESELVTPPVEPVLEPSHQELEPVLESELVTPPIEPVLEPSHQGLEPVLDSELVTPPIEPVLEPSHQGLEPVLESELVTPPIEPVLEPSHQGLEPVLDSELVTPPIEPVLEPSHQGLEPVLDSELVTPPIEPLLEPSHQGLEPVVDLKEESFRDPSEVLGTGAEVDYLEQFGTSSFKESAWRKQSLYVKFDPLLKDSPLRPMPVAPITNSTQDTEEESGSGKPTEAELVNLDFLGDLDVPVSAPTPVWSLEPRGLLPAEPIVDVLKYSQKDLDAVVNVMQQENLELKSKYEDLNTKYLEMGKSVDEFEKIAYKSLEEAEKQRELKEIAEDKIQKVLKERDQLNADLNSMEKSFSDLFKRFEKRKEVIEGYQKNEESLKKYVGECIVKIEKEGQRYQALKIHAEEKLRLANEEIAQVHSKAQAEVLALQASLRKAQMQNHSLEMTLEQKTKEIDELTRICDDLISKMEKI

Effect of a mutation on the interaction, decreasing interaction:
T343A
T344A
N347A
R350A
V354A
